# Experimental data published in PMC9279936.
# Tests used:
# [1] = system: influenza A virus hemagglutinin (on whole virus particles) (Influenza A virus (strain not in the material)); assay: BLI; details: BLI: 10 mM Tris-HCl pH 7.5, 140 mM NaCl, 10 mM KCl ([…], temperature not stated; cited from earlier work
# [2] = system: influenza A virus hemagglutinin (on whole virus particles) (Influenza A virus (strain not in the material)); assay: BLI; details: BLI: 10 mM Tris-HCl pH 7.5, 140 mM NaCl, 10 mM KCl ([…], temperature not stated
sequence,measurement,setting,value
TTGGGGTTATTTTGGGAGGGCGGGGGTT [RHA0385 (biotinylated)],Kd,[1],0.05 nM
same,Kd,[2],1.1 nM
